{"source": "paper PMC7913688", "about": "“Human Rev1 relies on insert-2 to promote selective binding and accurate replication of stabilized G-quadruplex motifs”", "key": {"[1]": {"target": "T1, hRev1 330-833 polymerase core (human, UniProt Q9UBZ9 330-833)", "T1 sequence": "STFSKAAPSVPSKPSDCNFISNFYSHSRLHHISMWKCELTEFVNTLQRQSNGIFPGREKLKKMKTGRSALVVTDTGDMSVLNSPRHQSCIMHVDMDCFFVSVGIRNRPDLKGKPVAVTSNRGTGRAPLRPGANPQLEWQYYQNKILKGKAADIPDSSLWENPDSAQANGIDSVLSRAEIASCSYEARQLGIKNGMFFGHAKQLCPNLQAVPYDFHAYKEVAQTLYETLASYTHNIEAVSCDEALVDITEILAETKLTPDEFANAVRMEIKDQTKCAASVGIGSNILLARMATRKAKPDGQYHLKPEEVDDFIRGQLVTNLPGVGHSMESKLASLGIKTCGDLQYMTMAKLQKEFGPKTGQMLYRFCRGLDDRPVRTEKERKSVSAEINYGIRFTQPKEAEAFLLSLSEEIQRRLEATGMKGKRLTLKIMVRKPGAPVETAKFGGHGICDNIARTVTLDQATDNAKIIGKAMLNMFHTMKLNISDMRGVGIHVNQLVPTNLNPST", "experiment": "fluorescence polarization; 100 mM KCl; Fluorescence polarization: 1 nM FAM-DNA, 100 mM KCl or LiCl; DNA annealed in 50 mM HEPES pH 7.5; full buffer as in cited ref 17, temperature not stated. Footprinting: 50 mM HEPES pH 7.5, 100 mM KCl, 10 uM protein, 30 uM ssDNA, room temperature", "details": "protein: recombinant"}, "[2]": {"target": "T1, hRev1 330-833 polymerase core", "experiment": "fluorescence polarization; 100 mM LiCl; Fluorescence polarization: 1 nM FAM-DNA, 100 mM KCl or LiCl; DNA annealed in 50 mM HEPES pH 7.5; full buffer as in cited ref 17, temperature not stated. Footprinting: 50 mM HEPES pH 7.5, 100 mM KCl, 10 uM protein, 30 uM ssDNA, room temperature", "details": "protein: recombinant; label: 5'-FAM"}, "[3]": {"target": "T1, hRev1 330-833 polymerase core", "experiment": "fluorescence polarization; 100 mM KCl (text: 127 +/- 14); Fluorescence polarization: 1 nM FAM-DNA, 100 mM KCl or LiCl; DNA annealed in 50 mM HEPES pH 7.5; full buffer as in cited ref 17, temperature not stated. Footprinting: 50 mM HEPES pH 7.5, 100 mM KCl, 10 uM protein, 30 uM ssDNA, room temperature", "details": "protein: recombinant; label: 5'-FAM; antiparallel G4 in K+"}, "[4]": {"target": "T1, hRev1 330-833 polymerase core", "experiment": "fluorescence polarization; 100 mM LiCl (text: 139 +/- 17); Fluorescence polarization: 1 nM FAM-DNA, 100 mM KCl or LiCl; DNA annealed in 50 mM HEPES pH 7.5; full buffer as in cited ref 17, temperature not stated. Footprinting: 50 mM HEPES pH 7.5, 100 mM KCl, 10 uM protein, 30 uM ssDNA, room temperature", "details": "protein: recombinant; label: 5'-FAM; antiparallel G4 in K+"}, "[5]": {"target": "T1, hRev1 330-833 polymerase core", "experiment": "fluorescence polarization; 100 mM KCl (text: 406 +/- 38); Fluorescence polarization: 1 nM FAM-DNA, 100 mM KCl or LiCl; DNA annealed in 50 mM HEPES pH 7.5; full buffer as in cited ref 17, temperature not stated. Footprinting: 50 mM HEPES pH 7.5, 100 mM KCl, 10 uM protein, 30 uM ssDNA, room temperature", "details": "protein: recombinant; label: 5'-FAM; hybrid G4 in K+"}, "[6]": {"target": "T1, hRev1 330-833 polymerase core", "experiment": "fluorescence polarization; 100 mM KCl (text: 1246 +/- 196); Fluorescence polarization: 1 nM FAM-DNA, 100 mM KCl or LiCl; DNA annealed in 50 mM HEPES pH 7.5; full buffer as in cited ref 17, temperature not stated. Footprinting: 50 mM HEPES pH 7.5, 100 mM KCl, 10 uM protein, 30 uM ssDNA, room temperature", "details": "protein: recombinant; label: 5'-FAM"}, "[7]": {"details": "label: 5'-FAM on template, parallel G4 in 5' overhang 18 nt, 11 bp duplex"}}}
{"binder": "AGCGGCGCGCGCTTTAGGAAAAGCGCGCGTTATGAGATGAT (ssDNA)", "note": "[Non-G4 Bcl2 control ss]", "values": [{"measurement": "Kd", "setting": "[1]; label: 5'-FAM", "value": "830 ± 310", "unit": "nM"}, {"measurement": "Kd", "setting": "[2]", "value": "750 ± 340", "unit": "nM"}]}
{"binder": "Non-G4 Bcl2 primer-template (mixed) DNA 1: AGCGGCGCGCGCTTTAGGAAAAGCGCGCGTTATGAGATGAT DNA 2: ATCATCTCATA", "values": [{"measurement": "Kd", "setting": "[1]; label: 5'-FAM on template, 5' overhang 30 nt, 11 bp duplex", "value": "660 ± 120", "unit": "nM"}]}
{"binder": "AGGGGCGGGCGCTTTAGGAAAAGGGCGGGTTATGAGATGAT (structured_DNA)", "note": "[Bcl2 1245 ss G4]", "values": [{"measurement": "Kd", "setting": "[1]; label: 5'-FAM, parallel G4 (13-nt loop) in K+", "value": "76 ± 16", "unit": "nM"}]}
{"binder": "Bcl2 1245 primer-template (mixed) DNA 1: AGGGGCGGGCGCTTTAGGAAAAGGGCGGGTTATGAGATGAT DNA 2: ATCATCTCATA", "values": [{"measurement": "Kd", "setting": "[1]; label: 5'-FAM on template, parallel G4 in 5' overhang 30 nt, 11 bp duplex", "value": "97 ± 20", "unit": "nM"}]}
{"binder": "Myc 14/23 primer-template (mixed) DNA 1: AGGGTGGGTAGGGTGGGTTATGAGATGAT DNA 2: ATCATCTCATA", "values": [{"measurement": "Kd", "setting": "[1]; [7]", "value": "59 ± 9", "unit": "nM"}]}
{"binder": "AGGGCGGGGCCGGGGAGGGTATGAGATGAT (structured_DNA)", "note": "[Rev1-prom ss G4]", "values": [{"measurement": "Kd", "setting": "[1]; label: 5'-FAM, parallel G4 (1:4:1 loops as stated) in K+", "value": "13 ± 3", "unit": "nM"}]}
{"binder": "Non-G4 Rev1-prom primer-template (mixed) DNA 1: AGCGCGCGGCCGGCGAGCGTATGAGATGAT DNA 2: ATCATCTCATA", "values": [{"measurement": "Kd", "setting": "[1]; label: 5'-FAM on template, 5' overhang 19 nt, 11 bp duplex", "value": "154 ± 30", "unit": "nM"}]}
{"binder": "TGGTTGGTGTGGTTGGTATGAGATGAT (structured_DNA)", "note": "[TBA ss G4]", "values": [{"measurement": "Kd", "setting": "[3]", "value": "130 ± 10", "unit": "nM"}, {"measurement": "Kd", "setting": "[4]", "value": "140 ± 20", "unit": "nM"}]}
{"binder": "Myc 2/11 primer-template (mixed) DNA 1: AGGGAGGGTGGGAAGGGTTATGAGATGAT DNA 2: ATCATCTCATA", "values": [{"measurement": "Kd", "setting": "[1]; [7]", "value": "45 ± 6", "unit": "nM"}]}
{"binder": "AGCGCGCGGCCGGCGAGCGTATGAGATGAT (ssDNA)", "note": "[Non-G4 Rev1-prom control ss]", "values": [{"measurement": "Kd", "setting": "[1]; label: 5'-FAM", "value": "370 ± 70", "unit": "nM"}, {"measurement": "Kd", "setting": "[2]", "value": "260 ± 120", "unit": "nM"}]}
{"binder": "TTGGGTTAGGGTTAGGGTTAGGGATATGAGATGAT (structured_DNA)", "note": "[hTelo-4 ss G4]", "values": [{"measurement": "Kd", "setting": "[5]", "value": "410 ± 40", "unit": "nM"}]}
{"binder": "hTelo-4 primer-template (mixed) DNA 1: TTGGGTTAGGGTTAGGGTTAGGGATATGAGATGAT DNA 2: ATCATCTCATA", "values": [{"measurement": "Kd", "setting": "[1]; label: 5'-FAM on template, hybrid G4 in 5' overhang 24 nt, 11 bp duplex", "value": "840 ± 50", "unit": "nM"}]}
{"binder": "TTGCGTTAGCGTTAGCGTTAGCGATATGAGATGAT (ssDNA)", "note": "[Non-G4 Telo-4 control ss]", "values": [{"measurement": "Kd", "setting": "[6]", "value": "1200 ± 200", "unit": "nM"}, {"measurement": "Kd", "setting": "[2]", "value": "920 ± 120", "unit": "nM"}]}
{"binder": "TGCTTGCTGTGCTTGCTATGAGATGAT (ssDNA)", "note": "[Non-G4 TBA control ss]", "values": [{"measurement": "Kd", "setting": "[1]; label: 5'-FAM", "value": "380 ± 40", "unit": "nM"}, {"measurement": "Kd", "setting": "[2]", "value": "310 ± 40", "unit": "nM"}]}
{"binder": "AGCGCGCTGTGCGAAGAGCGAATATGAGATGAT (ssDNA)", "note": "[Non-G4 KRAS control ss]", "values": [{"measurement": "Kd", "setting": "[1]; label: 5'-FAM", "value": "840 ± 90", "unit": "nM"}, {"measurement": "Kd", "setting": "[2]", "value": "1620 ± 800", "unit": "nM"}]}
{"binder": "AGGGCGGTGTGGGAAGAGGGAATATGAGATGAT (structured_DNA)", "note": "[KRAS 22RT ss G4]", "values": [{"measurement": "Kd", "setting": "[1]; label: 5'-FAM, parallel G4 in K+", "value": "52 ± 10", "unit": "nM"}]}
{"binder": "KRAS 22RT primer-template (mixed) DNA 1: AGGGCGGTGTGGGAAGAGGGAATATGAGATGAT DNA 2: ATCATCTCATA", "values": [{"measurement": "Kd", "setting": "[1]; label: 5'-FAM on template, parallel G4 in 5' overhang 22 nt, 11 bp duplex", "value": "120 ± 10", "unit": "nM"}]}
{"binder": "Non-G4 KRAS primer-template (mixed) DNA 1: AGCGCGCTGTGCGAAGAGCGAATATGAGATGAT DNA 2: ATCATCTCATA", "values": [{"measurement": "Kd", "setting": "[1]; label: 5'-FAM on template, 5' overhang 22 nt, 11 bp duplex", "value": "1120 ± 80", "unit": "nM"}]}
{"binder": "AGGGAGGGTGGGAAGGGTTATGAGATGAT (structured_DNA)", "note": "[Myc 2/11 ss G4]", "values": [{"measurement": "Kd", "setting": "[1]; label: 5'-FAM, parallel G4 (1:1:2 loops) in K+", "value": "22 ± 3", "unit": "nM"}]}
{"binder": "Rev1-prom primer-template (mixed) DNA 1: AGGGCGGGGCCGGGGAGGGTATGAGATGAT DNA 2: ATCATCTCATA", "values": [{"measurement": "Kd", "setting": "[1]; label: 5'-FAM on template, parallel G4 in 5' overhang 19 nt, 11 bp duplex", "value": "11 ± 2", "unit": "nM"}]}
{"binder": "TBA primer-template (mixed) DNA 1: TGGTTGGTGTGGTTGGTATGAGATGAT DNA 2: ATCATCTCATA", "values": [{"measurement": "Kd", "setting": "[1]; label: 5'-FAM on template, antiparallel G4 in 5' overhang 16 nt, 11 bp duplex", "value": "165 ± 25", "unit": "nM"}]}
